Measurements taken from publication PMC4471001.

Legend:
[1] = biological target: human importin α5 (human) (UniProt P52294); assay: fluorescence polarisation; S2 Fig D; method not named for this panel, taken as the paper's fluorescence polarization assay; dark and blue light, binding light independent
[2] = biological target: human importin α5 (human) (UniProt P52294); assay: fluorescence polarisation; competition, dark (value read after 5 minutes in absence of light); 25 nM TAMRA peptide …, 50 mM Tris pH 7.5, 100 mM NaCl, 1 mM DTT, 25°C; Kd from IC50
[3] = biological target: human importin α7 (human) (UniProt O60684); assay: as above
[4] = biological target: human importin α5 (human) (UniProt P52294); assay: fluorescence polarisation; competition, under blue light (455 nm, 6 mW/cm^2; value read after 2 minutes of illumination); 25 nM TAMRA peptide …, 50 mM Tris pH 7.5, 100 mM NaCl, 1 mM DTT, 25°C; Kd from IC50
[5] = biological target: human importin α7 (human) (UniProt O60684); assay: as above

Chain of human importin α5 (human) (P52294 whole entry): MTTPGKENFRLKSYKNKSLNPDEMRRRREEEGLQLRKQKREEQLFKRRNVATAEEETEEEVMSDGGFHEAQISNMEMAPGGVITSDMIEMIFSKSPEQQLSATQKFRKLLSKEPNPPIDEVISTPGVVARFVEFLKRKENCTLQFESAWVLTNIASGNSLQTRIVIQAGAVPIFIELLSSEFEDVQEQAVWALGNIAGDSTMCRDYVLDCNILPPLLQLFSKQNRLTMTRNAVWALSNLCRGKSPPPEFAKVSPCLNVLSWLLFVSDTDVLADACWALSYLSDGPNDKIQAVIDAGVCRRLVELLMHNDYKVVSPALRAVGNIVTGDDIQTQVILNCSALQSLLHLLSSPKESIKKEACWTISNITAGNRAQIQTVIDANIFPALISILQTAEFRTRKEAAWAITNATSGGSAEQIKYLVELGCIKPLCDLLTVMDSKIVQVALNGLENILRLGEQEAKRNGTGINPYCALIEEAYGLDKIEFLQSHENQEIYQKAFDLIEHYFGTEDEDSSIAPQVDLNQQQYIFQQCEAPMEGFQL

| Substance | Kd [1] [nM] | Kd [2] [nM] | Kd [3] [nM] | Kd [4] [nM] | Kd [5] [nM] |
| --- | --- | --- | --- | --- | --- |
| AsLOV2cMyc (from UniProt O49003 404-546) | 1 | – | – | – | – |
| AsLOV2cNLS (from UniProt O49003 404-546) (designed binder) | – | 1500 | 2000 | 250 | 340 |
